Target: YFP-SmB′ (UniProt P14678)
Assay: co-IP

fold coilin recovered with anti-GFP relative to NMS: 4.5 fold
Substance: coilin, endogenous in HeLa (from UniProt P38432 1-576) (natural protein)

Source: paper PMC2839002
